B1: corn trypsin inhibitor (other, UniProt P01088 29-138, looked up)
chain: SAGTSCVPGWAIPHNPLPSCRWYVTSRTCGIGPRLPWPELKRRCCRELADIPAYCRCTALSILMDGAIPPGPDAQLEGRLEDLPGCPREVQRGFAATLVTEAECNLATIS
notes: Isolated from corn; also called CTI

What was measured:
fXIa = target: T1, fXIa (Homo sapiens, UniProt P03951); assay: Chromogenic test of protease inhibition in buffer, fXIa (substrate S-2366); format: biochemical; conditions: buffer solution, summary of Table 2
T1 construct: factor XI into its active form, factor XIa (fXIa)
Experimental: In order to assess selectivity of the fXIIa inhibition by the polypeptide comprising the sequence of the infestin-4 mutant MutB, its inhibitory activity in buffer solution against the purified coagulation factors was determined. The polypeptide's activity was compared with the known fXIIa inhibitors: CTI, infestin-4, infestin-4-based mutant Mut15, LCTI-III. […] The standard deviation amounted to about 50% of the average value; each value was measured by performing 2-3 repeats.
To determine the inhibition activity of such proteins as MutB, CTI, Inf4, Mut15, and LCTI-III as related to different coagulation proteases in a buffer, the chromogenic test was used: the mixture of protease and inhibitor was incubated in the wells of the plate for 15 minutes at 37° C., after which the chromogenic substrate solution was added to the mixture, and the protease activity was measured as the rate of chromogenic product formation at 37° C.
Chromogenic substrates included a p-nitroanilide group cleaved by the corresponding proteases. After cleavage of the p-nitroanilide group from the substrate molecule, the group absorption spectrum changes, and the change of concentration of such product within time can be detected at the light wavelength of 405 nm using a plate spectrophotometer. To build a dependence curve of the protease activity from the inhibitor concentration, different inhibitor concentrations were added into several samples with the same protease concentration. After that, the inhibitor concentration able to decrease the protease activity by 50% (IC50) was determined. The inhibition constant Ki was calculated using the Cheng-Prusoff equation (Ki=IC50/(1+S/KM)), where S is the initial substrate concentration, KM is the Michaelis-Menten constant of the substrate to the protease.
Native infestin-4 and its mutants MutB and Mut15 used here were fusion proteins with thioredoxin I E. coli containing polyhisticline clusters. […]

whole blood = assay: Spontaneous clotting time of whole blood collected without calcium chelator; parameters: species or system human; conditions: MutB 10 μM, CTI 5 μM; 22° C., no calcium chelator; 3 healthy donors
Experimental: We used concentrations of contact activation inhibitors leading to 2.5-fold increase of APTT in normal plasma. Untreated whole blood was collected from 3 healthy donors without adding any anticoagulant, for example, citrate, except for the said contact activation inhibitors. The blood was mixed with the said inhibitors at 22° C. using a rotator, after which the time of clot formation in the blood was measured.
Blood was collected from the median cubital vein of the left hand into a sterile syringe Master UN PE, volume 10 ml, needle 21 G×1½″; 0.8×40 mm (FarmLine, USA). Calcium chelator or other anticoagulants, except contact activation inhibitors MutB or CTI, were not added into plasma. […] The collected blood was poured into a 15 ml tube, mixed by inverting it twice, after which 0.7 ml portions of blood were poured into 1.5 ml polypropylene microcentrifuge tubes MaxyClear Snaplock (Axygen, USA); immediately after, time record using a stopwatch started. Preliminarily, 78 microliters of MutB solution at 100 μM concentration, CTI solution at 50 μM concentration, or buffer solution of 30 mM Hepes pH 7.4 were added into the said tubes. The tubes containing the mixture of whole blood with the said solutions were fixed in the rotator and mixed by inverting them at the rotation speed of 10 rpm. The time of appearance of clots or fibrin filaments in the whole blood during mixing was fixed.

T1 sequence (P03951 388-625 limits assumed): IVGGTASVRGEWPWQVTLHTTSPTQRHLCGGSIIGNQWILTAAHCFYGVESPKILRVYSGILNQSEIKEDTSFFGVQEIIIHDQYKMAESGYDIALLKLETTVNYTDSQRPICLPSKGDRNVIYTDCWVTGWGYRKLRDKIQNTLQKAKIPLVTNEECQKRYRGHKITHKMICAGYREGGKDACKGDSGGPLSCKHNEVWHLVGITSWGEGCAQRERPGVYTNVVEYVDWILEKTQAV
T1 sequence (P03951 19-387 partner limits assumed): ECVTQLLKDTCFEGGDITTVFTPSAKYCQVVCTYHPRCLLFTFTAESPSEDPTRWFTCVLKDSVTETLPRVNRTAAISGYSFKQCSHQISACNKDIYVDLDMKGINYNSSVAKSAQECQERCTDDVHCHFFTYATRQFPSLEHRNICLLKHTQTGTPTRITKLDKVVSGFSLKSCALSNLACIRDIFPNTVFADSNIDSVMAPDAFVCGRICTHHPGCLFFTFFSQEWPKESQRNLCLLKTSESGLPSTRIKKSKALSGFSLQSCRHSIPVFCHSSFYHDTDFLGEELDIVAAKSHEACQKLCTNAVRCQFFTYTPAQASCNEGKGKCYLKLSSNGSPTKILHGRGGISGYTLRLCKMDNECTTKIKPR

Molecule | inhibition of fXIa (in words) (fXIa) | increase of the whole blood storage time in the tube (clotting time) (whole blood)
MutB: polypeptide comprising the sequence of infestin-4 mutant MutB (SEQ ID NO: 1), inhibition loop TRNFVA; high-selectivity fXIIa inhibitor (EVRNPCACTRNFVAVCGSDGKTYGNPCMLNCAAQTKVPGLKLVHEGRCQRSNVEQF; Infestin-4 mutant MutB) | do not inhibit | two to three-fold
B1 | inhibits | two to three-fold
